Reference: PMC8996237

Tests used:
[1] = molecular target: hCMP-mRBD from a stable CHO suspension cell line (human | HIV-1 JR-FL | SARS-CoV-2) (UniProt P0DTC2); test: SDS-PAGE
[2] = molecular target: hCMP-mRBD from a stable HEK293 suspension cell line (human | HIV-1 JR-FL | SARS-CoV-2) (UniProt P0DTC2); test: SDS-PAGE

Row | Substance | stoichiometry N [1] | stoichiometry N [2]
1 | hCMP-mRBD from a stable CHO suspension cell line (from UniProt P0DTC2 332-532) | 3 | 
2 | hCMP-mRBD from a stable HEK293 suspension cell line (from UniProt P0DTC2 332-532) |  | 3
